“And” between values parts separate entries of the source, which are not always exact repeats. Identical values can stand only once. Where no end group is shown, it is not given here. Side-chain parts run from the residue outwards. rhodamine‑labelled PEGylated perfluoro‑15‑crown‑5 ether nanoemulsion = not defined here; carboxyfluorescein = N-terminal fluorescence label (CF)

The nature of series [1]: Dynamic light scattering and ζ potential of PFCs. The class given is physicochemical. Particulars: panel B raw data, single replicates #1-#6. Here is the method: Dynamic light scattering and the ζ potential were measured as described previously[9],[32] at 25 °C using a Nanotrac Wave II analyzer (Microtrac) driven by Microtrac FLEX Software 3.4.
Extended Data Fig. 8 Physicochemical properties and cellular uptake of ^hNPPFCs. a, Cellular uptake of ^hNPPFCs by human monocyte subsets and neutrophils: Human immune cells isolated from the blood of healthy volunteers were incubated with ^hNPPFCs. Subsequently, cells were stained with CD11b, CD14 and CD16 to differentiate between neutrophils (red), classical monocytes (gray) and non-classical monocytes (blue) and the cells were analyzed by flow cytometry. The cellular uptake of ^hNPPFCs was determined under unstimulated conditions (top) and after treatment with 1 µg/ml LPS (bottom). b, Physicochemical properties of the generated nanotracers: Characterization of size, size distribution and ζ potential of ^MalPFCs and targeting PFCs (^hNPPFCs, ^ConPFCs) by dynamic light scattering (DLS). The rhodamine fluorescence signal of the PCS was determined by IVIS imaging and the ^19F content by ^19F MRI. c-e, Cryo transmission electron microscopy of the generated nanotracers: c, Cryo transmission electron microscopy (cryo-TEM) of ^hNPPFCs and ^ConPFCs. Graphs: The diameter of the PFCs was determined manually from three images categorized into 25 nm groups. […] Data are derived from three images for ^hNPPFCs and ^ConPFCs each. d, Box plot (box and whiskers; min to max) of the diameter of ^ConPFCs/^hNPPFCs calculated from cryo-TEM images. e, Relative amount of liposomes (%) in individual cryo-TEM images. The number of PFCs and liposomes was manually determined (n = 4/5 images). Red arrows in the cryo-TEM images indicate liposomes. Data are mean values ± SD of n = 5-6 (a), n = 3-6 (b), n = 3 (c), n = 3 (d) and n = 6 (e) independent experiments; *** = p < 0.001, verified by one-way ANOVA (a). Source data

Series [2] can be described thus: Liver serum markers after PFC injection. The class given is in vivo, mouse. The note with it: i.v. over 3 consecutive days, 24 h after last injection. Here is the method:
^ConPFCs, ^mNPPFCs (each at 1 mM per kg BW) or saline were injected i.v. over 3 consecutive days. Twenty-four hours after the last injection, mice were killed, and blood samples were withdrawn to determine GLDH, AST, ALP, ALT and bilirubin levels by standard clinical procedures. Furthermore, the liver and spleen were dissected, fixed in formalin and snap frozen. Subsequently, 4-µm cryosections were cut and stained with hematoxylin and eosin as described previously.
Extended Data Fig. 3 Assessment of ^mNPPFC/^ConPFC biodistribution, liver serum markers and histology of liver and spleen. a, Biodistribution of intravenously injected ^mNPPFCs was determined via ^19F MRI measurements at distinct time points after injection (1, 3, 6 and 24 h after injection). Shown are quantification of fluorine signal intensities in the blood, liver and spleen indicating a fast wash-out from the blood accompanied by a strong influx into the liver while signal intensities in the spleen were constant over the entire observation period; a.u. = arbitrary units. b, Serum levels of GLDH (glutamate dehydrogenase), AST (aspartate aminotransferase), ALP (alkaline phosphatase), ALT (alanine aminotransferase) and bilirubin after intravenous application of NaCl as control, ^ConPFCs or ^mNPPFCs. c + d, 4 µm sections of liver (C) and spleen (D) stained with hematoxylin and eosin. Organs were excised and processed for histology 24 h post injection of NaCl (upper row), ^ConPFCs (middle), ^mNPPFCs (lower). Representative liver/spleen images of organs from three different animals are shown. Scale bars indicate 100 µm. Data are mean values ± SD of n = 6 (a), n = 4-6 (b) and n = 6 (c + d) independent experiments. Source data

In series [3] the test system is murine neutrophils. As to the kind of experiment: Cell surface activation markers CD11b, CD62L, CD63 on murine blood neutrophils. The class given is in vivo, mouse. Particulars: mNPPFCs 1 mM per kg BW i.v., blood 2 h later; LPS = LPS-doped Matrigel s.c. 24 h before (positive control); individual experiments, only first lines of sheet shown. Here is the method:
[…] per kg BW ^mNPPFCs or saline were injected i.v., and, 2 h later, neutrophils were isolated from the blood and stained for CD11b, CD62L and CD63. As a positive control, mice were implanted with LPS-doped Matrigel 24 h before blood withdrawal.
A total of 1 × 10^6 isolated human neutrophils were incubated with 50 µl ml^−1 ^hNPPFCs, 1 µg ml^−1 LPS or only DMEM for 1 h at 37 °C followed by intense washing with MACS buffer. Afterward, 1 × 10^5 cells were transferred into 96-well plates and stained for CD11b and CD63 (eBioscience, clone HSC6) or CD66b (eBioscience, clone G10F5) for 20 min at 4 °C. After two washing steps with MACS buffer, cells were analyzed by flow cytometry. A total of 1 × 10^5 isolated murine neutrophils were transferred into a 96-well plate and stained for CD11b, CD62L and CD63 for 20 min at 4 °C. After two washing steps with MACS buffer, cells were analyzed by flow cytometry.
Extended Data Fig. 9 Impact of ^mNPPFCs on murine neutrophils. a, Differentially expressed genes (DEGs) identified by bulk RNA sequencing of murine blood neutrophils after intravenous injection of ^mNPPFCs, ^ConPFCs or NaCl (Ctrl) as control. […] In total 25655 RNA transcripts were analyzed. b, Cell surface expression of CD11b, CD62L, CD63 on blood derived murine neutrophils after intravenous application of NaCl (Ctrl) or ^mNPPFCs. As a positive control, matrigel doped with 50 µg LPS was subcutaneously implanted into the neck of mice and after 24 h, neutrophils were isolated from the blood and analyzed by flow cytometry. c, Impact of ^mNPPFC incubation on neutrophil migration, phagocytosis and release of reactive oxygen species (ROS). Migration was determined in vivo by assessment of the infiltration of neutrophils into a matrigel/LPS plug; phagocytosis was determined by intravenous injection of FITC-labelled E.coli into mice and the subsequent removal and flow cytometric analysis of blood neutrophils; extracellular ROS were measured within the cell supernatant of blood neutrophils by oxidation of DHE (dihydroethidium) followed by UPLC analysis. […]

As to “hNPPFCs: PEGylated rhodamine-labeled perfluorocarbon nanoemulsion coupled with human neutrophil-specific peptide hNP (carboxyfluorescein-DLVTSKLQVGGGC; also: C-terminal Cys coupled via maleimide-PEG2000-DSPE to rhodamine-labelled perfluorocarbon nanoemulsion)”, in series [1] (dynamic light scattering), the PDI was 0.08 and 0.07; the Size is 91.7 and 97.8 and 100.7 and 101.3 and 102.8 and 95.3. For the same substance, the zeta potential in series [1] was -30.64 and -34.35 and -35.76 and -32.06 and -35.94 and -33.07.

Consider “mNPPFCs: PEGylated rhodamine-labeled perfluoro-15-crown-5 ether nanoemulsion (maleimide PFCs) coupled with murine neutrophil-specific peptide mNP (carboxyfluorescein-DFYKPMPNLRITGGGC([maleimide‑PEG2000‑DSPE-rhodamine‑labelled PEGylated perfluoro‑15‑crown‑5 ether nanoemulsion]); reading uncertain; also: printed as DFYKPMPNLRIT-GGG-C)”, for which the “adverse side effects (liver serum markers, histology of liver and spleen)” value in series [2] is “neither analysis of liver serum markers (GLDH, AST, ALP, ALT, bilirubin) nor histological examination of the liver and spleen revealed any evidence for adverse side effects”. Also, in series [3], the “cell surface expression of CD11b on blood derived murine neutrophils, flow cytometry” value is 2655 and 2691 and 3361 and 1842; the “cell surface expression of CD62L on blood derived murine neutrophils, flow cytometry” value was 1971 and 1966 and 1558 and 2425; the “cell surface expression of CD63 on blood derived murine neutrophils, flow cytometry” value is 135 and 126 and 105.

The record behind these values is PMC11357992, “Non-invasive mapping of systemic neutrophil dynamics upon cardiovascular injury” (Nature Cardiovascular Research, 2023).
